16 molecules from patent publication US20250114433A1 (published 2025) can be followed below.

T1: KRAS G12V (same sequence in NRAS and HRAS G12V) peptide on HLA-A*11:01 (human)
T1 peptide: VVVGAVGVGK

T2: KRAS G12V (same sequence in NRAS and HRAS G12V) peptide on HLA-A*11:01 (human)
T2 peptide: VVGAVGVGK

T3: KRAS G12D (same sequence in NRAS and HRAS G12D) peptide on HLA-A*11:01 (human)
T3 peptide: VVGADGVGK

T4: KRAS G12D (same sequence in NRAS and HRAS G12D) peptide on HLA-A*11:01 (human)
T4 peptide: VVVGADGVGK

B1: A11 KRAS TCR_129_8 (TCR, V domains shown)
Valpha: DQQVKQNSPSLSVQEGRISILNCDYTNSMFDYFLWYKKYPAEGPTFLISISSIKDKNEDGRFTVFLNKSAKHLSLHIVPSQPGDSAVYFCAANTNAGKSTFGDGTTLTVKP
Vbeta: DTGVSQDPRHKITKRGQNVTFRCDPISEHNRLYWYRQTLGQGPEFLTYFQNEAQLEKSRLLSDRFSAERPKGSFSTLEIQRTEQGDSAMYLCASSTGTAEQYFGPGTRLTVT
B2: TCR20 (TCR, V domains shown)
Valpha: DAKTTQPPSMDCAEGRAANLPCNHSTISGNEYVYWYRQIHSQGPQYIIHGLKNNETNEMASLIITEDRKSSTLILPHATLRDTAVYYCIVRLNSGNTPLVFGKGTRLSVIA
Vbeta: EAGVAQSPRYKIIEKRQSVAFWCNPISGHATLYWYQQILGQGPKLLIQFQNNGVVDDSQLPKDRFSAERLKGVDSTLKIQPAKLEDSAVYLCASSPTFPAGDRDTQYFGPGTRLTVL
B3: TCR15 (TCR, V domains shown)
Valpha: QKEVEQNSGPLSVPEGAIASLNCTYSDRGSQSFFWYRQYSGKSPELIMFIYSNGDKEDGRFTAQLNKASQYVSLLIRDSQPSDSATYLCAVNARGNMLTFGGGTRLMVKP
Vbeta: SQTIHQWPATLVQPVGSPLSLECTVEGTSNPNLYWYRQAAGRGLQLLFYSVGIGQISSEVPQNLSASRPQDRQFILSSKKLLLSDSGFYLCAWTLTGFGQPQHFGDGTRLSIL
B4: TCR23 (TCR, V domains shown)
Valpha: TQLLEQSPQFLSIQEGENLTVYCNSSSVFSSLQWYRQEPGEGPVLLVTVVTGGEVKKLKRLTFQFGDARKDSSLHITAAQPGDTGLYLCAGVREAGGTSYGKLTFGQGTILTVHP
Vbeta: DAEITQSPRHKITETGRQVTLACHQTWNHNNMFWYRQDLGHGLRLIHYSYGVQDTNKGEVSDGYSVSRSNTEDLPLTLESAASSQTSVYFCASSEYVGAHEQYFGPGTRLTVT
B5: A11 KRAS TCR_220_12 (TCR, V domains shown)
Valpha: AQSVTQLDSHVSVSEGTPVLLRCNYSSSYSPSLFWYVQHPNKGLQLLLKYTSAATLVKGINGFEAEFKKSETSFHLTKPSAHMSDAAEYFCVVSDMVSGYALNFGKGTSLLVTP
Vbeta: DIYQTPRYLVIGTGKKITLECSQTMGHDKMYWYQQDPGMELHLIHYSYGVNSTEKGDLSSESTVSRIRTEHFPLTLESARPSHTSQYLCASSESLYNEQFFGPGTRLTVL
B6: A11_TCR22 (TCR, V domains shown)
Valpha: QKEVEQDPGPLSVPEGAIVSLNCTYSNSAFQYFMWYRQYSRKGPELLMYTYSSGNKEDGRFTAQVDKSSKYISLFIRDSQPSDSATYLCAMSAGAAGNKLTFGGGTRVLVKP
Vbeta: EADIYQTPRYLVIGTGKKITLECSQTMGHDKMYWYQQDPGMELHLIHYSYGVNSTEKGDLSSESTVSRIRTEHFPLTLESARPSHTSQYLCASSQGLYNEQFFGPGTRLTVL
B7: TCR21 (TCR, V domains shown)
Valpha: B6 Valpha with A93G, A95N, K99M, V108L, L109M
Vbeta: B6 Vbeta with Q95V
B8: TCR18 (TCR, V domains shown)
Valpha: SQQGEEDPQALSIQEGENATMNCSYKTSINNLQWYRQNSGRGLVHLILIRSNEREKHSGRLRVTLDTSKKSSSLLITASRAADTASYFCATDEGGGADGLTFGKGTHLIIQP
Vbeta: DSGVTQTPKHLITATGQRVTLRCSPRSGDLSVYWYQQSLDQGLQFLIQYYNGEERAKGNILERFSAQQFPDLHSELNLSSLELGDSALYFCASSVTWGPYEQYFGPGTRLTVT
B9: A11 KRAS TCR_141_6 (TCR, V domains shown)
Valpha: B8 Valpha with E93V, G94F, G95Q, D98Q, G99K, T101V, K104Q, H107R, I109T, Q111N
Vbeta: EAGVAQSPRYKIIEKRQSVAFWCNPISGHATLYWYQQILGQGPKLLIQFQNNGVVDDSQLPKDRFSAERLKGVDSTLKIQPAKLEDSAVYLCASSIETSYEQYFGPGTRLTVT
B10: TCR14 (TCR, V domains shown)
Valpha: B8 Valpha
Vbeta: DSGVTQTPKHLITATGQRVTLRCSPRSGDLSVYWYQQSLDQGLQFLIQYYNGEERAKGNILERFSAQQFPDLHSELNLSSLELGDSALYFCASTHGRDSTDTQYFGPGTRLTVL
B11: A11_TCR16 (TCR, V domains shown)
Valpha: KDQVFQPSTVASSEGAVVEIFCNHSVSNAYNFFWYLHFPGCAPRLLVKGSKPSQQGRYNMTYERFSSSLLILQVREADAAVYYCVLNRDDKIIFGKGTRLHILP
Vbeta: DAGVIQSPRHEVTEMGQEVTLRCKPISGHDYLFWYRQTMMRGLELLIYFNNNVPIDDSGMPEDRFSAKMPNASFSTLKIQPSEPRDSAVYFCASSRLGPYNEQFFGPGTRLTVL
B12: A11 KRAS TCR_220_21 (TCR, V domains shown)
Valpha: GEDVEQSLFLSVREGDSSVINCTYTDSSSTYLYWYKQEPGAGLQLLTYIFSNMDMKQDQRLTVLLNKKDKHLSLRIADTQTGDSAIYFCAEPIIGGNTPLVFGKGTRLSVIA
Vbeta: GAGVSQSPRYKVAKRGQDVALRCDPISGHVSLFWYQQALGQGPEFLTYFQNEAQLDKSGLPSDRFFAERPEGSVSTLKIQRTQQEDSAVYLCASSSEGLAGGPTAGELFFGEGSRLTVL
B13: TCR17 (TCR, V domains shown)
Valpha: KVTQAQTEISVVEKEDVTLDCVYETRDTTYYLFWYKQPPSGELVFLIRRNSFDEQNEISGRYSWNFQKSTSSFNFTITASQVVDSAVYFCALSEVHASGGSYIPTFGRGTSLIVHP
Vbeta: DVKVTQSSRYLVKRTGEKVFLECVQDMDHENMFWYRQDPGLGLRLIYFSYDVKMKEKGDIPEGYSVSREKKERFSLILESASTNQTSMYLCASSLGAGQHNSPLHFGNGTRLTVT
B14: TCR19 (TCR, V domains shown)
Valpha: B1 Valpha with N93S, T94A, A96N, G97N, K98D, S99M, T100R, D103A, T106R
Vbeta: DAGVIQSPRHEVTEMGQEVTLRCKPISGHDYLFWYRQTMMRGLELLIYFNNNVPIDDSGMPEDRFSAKMPNASFSTLKIQPSEPRDSAVYFCASSPTGGGMLGQYFGPGTRLTVL
B15: A11 KRAS TCR_129_2 (TCR, V domains shown)
Valpha: SQQGEEDPQALSIQEGENATMNCSYKTSINNLQWYRQNSGRGLVHLILIRSNEREKHSGRLRVTLDTSKKSSSLLITASRAADTASYFCASSGGGADGLTFGKGTHLIIQP
Vbeta: KAGVTQTPRYLIKTRGQQVTLSCSPISGHRSVSWYQQTPGQGLQFLFEYFSETQRNKGNFPGRFSGRQFSNSRSEMNVSTLELGDSALYLCASSLGGAGETQYFGPGTRLLVL
B16: A11 KRAS TCR_141_7 (TCR, V domains shown)
Valpha: AQSVTQPDIHITVSEGASLELRCNYSYGATPYLFWYVQSPGQGLQLLLKYFSGDTLVQGIKGFEAEFKRSQSSFNLRKPSVHWSDAAEYFCAVTGGGNKLTFGTGTQLKVEL
Vbeta: DTGVSQDPRHKITKRGQNVTFRCDPISEHNRLYWYRQTLGQGPEFLTYFQNEAQLEKSRLLSDRFSAERPKGSFSTLEIQRTEQGDSAMYLCASSLAGETGELFFGEGSRLTVL

Where a chain is given by its changes, count along the chain named.

In the first assay the target is T1, KRAS G12V (same sequence in NRAS and …). Kind of assay: cytokine release.
For the molecule B1, the binding result is recorded as “recognises”.
B2: the binding result was “recognises”.
The same measure, in the same setting: with B3 the entry was “recognises”.
Same read-out and setting: with B4 the entry was “recognises”.
The same measure, in the same setting: with B5 the entry was “no recognition”.
Take B6: the binding result is recorded as “no recognition”.
Still for that read-out and setting: with B7 the entry was “no recognition”; with B8, “no recognition”.
On the same count and under the same terms, to B9 belongs “recognises”.
In the case of B10, the binding result was “no recognition”.
Consider B11, for which the binding result was “no recognition”.
Same read-out and setting: to B12 belongs “recognises”; to B13, “no recognition”.

A further assay concerns the target T2, KRAS G12V (same sequence in NRAS and …). Kind of assay: cytokine release.
Regarding B14, the binding result is “recognises”.
The same measure, in the same setting: with B1 the entry was “recognises”.
In the case of B2, the binding result is on record as “recognises”.
Take B3: the binding result is reported as “no recognition”.
For B4, the binding result was “no recognition”.
Regarding B5, the binding result was “no recognition”.
B6: the binding result is “no recognition”.
For the molecule B7, the binding result was “no recognition”.
On the same count and under the same terms, to B8 belongs “no recognition”.
Same read-out and setting: with B9 the entry was “recognises”.
Same read-out and setting: to B10 belongs “recognises”.
For B11, the binding result is reported as “no recognition”.
The same measure, in the same setting: to B13 belongs “no recognition”.

A further assay has as its target T3, KRAS G12D (same sequence in NRAS and …). Put plainly: cytokine release.
As to B14, the binding result was “no recognition”.
With B2, the binding result is “no recognition”.
Same read-out and setting: to B3 belongs “no recognition”.
B4: the binding result was “no recognition”.
On the same count and under the same terms, to B5 belongs “no recognition”.
Same read-out and setting: with B6 the entry was “no recognition”; with B7, “no recognition”; with B8, “no recognition”.
Still for that read-out and setting: to B10 belongs “no recognition”.
Turning to B11, the binding result is given as “no recognition”.
The same measure, in the same setting: to B12 belongs “no recognition”; to B13, “no recognition”.

For the next assay, the target named is T4, KRAS G12D (same sequence in NRAS and …). Kind of assay: cytokine release.
Take B14: the binding result is “no recognition”.
Same read-out and setting: with B2 the entry was “no recognition”; with B15, “recognises”.
Turning to B3, the binding result was “no recognition”.
Same read-out and setting: to B4 belongs “no recognition”; to B5, “recognises”.
Still for that read-out and setting: with B6 the entry was “recognises”; with B7, “recognises”; with B8, “no recognition”.
For the molecule B10, the binding result was “no recognition”.
The same measure, in the same setting: with B11 the entry was “recognises”; with B16, “recognises”; with B12, “no recognition”.
The same measure, in the same setting: with B13 the entry was “recognises”.
